{"source": "paper PMC5115869", "target": "GCN4pLI-HCN2(CNBD) tetramer (human)", "test": "SEC; GCN4pLI-HCN2(CNBD) in solution; column and buffer not told for this run", "data": [{"substance": "GCN4pLI-HCN2(CNBD) tetramer", "values": [{"measurement": "stoichiometry N", "result": 4}]}]}
